The text below walks through data of patent US20170007595A1, “NSD3 INHIBITORS FOR TREATMENT OF CANCERS” (THE BRIGHAM AND WOMEN'S HOSPITAL, INC., priority 2014, published 2017).

Experiment [1] relates to 797TRex cells. Put plainly: differentiation of 797TRex cells on induced expression of construct (involucrin immunoblot, H&E, IHC). The experiment is classed as cell-based, human. The note with it: induced expression for 120 h. The text has this:
BRD4 ET domain containing fragment (BRD4 444-722) was cloned into pcDNA5 FRT/TO-FLAG (Invitrogen) with an N-terminal SV40 NLS sequence to generate pcDNA5 FRT/TO-Flag-NLS-BRD4-ET (p6894). MSCV-CMV-Flag-HA-NSD3 (p6351) has been described previously (8). To make tetracycline-inducible N- and C-terminal BioTAP-tagged constructs, the inventors transferred the gateway destination cassette from pHAGE-TRE (gift of Steven Elledge) to the pcDNA5 frt/to mammalian expression vector with N-terminal BioTAP tandem tag to make pcDNA5 frt/to-DEST-NBioTAP. NSD3-NUT was constructed by fusion PCR into pDONR223, then transferred into the pcDNA5 frt/to-DEST-NBioTAP vector by gateway cloning. Full length NSD3, NSD3Tr encoding amino acids 1-569 of NSD3, full length NUT, BRD4-NUT (derived from pcDNA5 frt/to FLAG-BRD4-NUT (17)) were PCR-cloned into pDONR223, then transferred by gateway cloning into the pHAGE-P CMVt N-HA GAW expression vector derived from the PHAGE lentiviral vector (52).
NMC cell lines, TC-797 (15) 10-15 (6), 8645(17), 293T, U205, and C33A cells were maintained as monolayer cultures in Dulbecco Modified Eagle medium (DMEM) (Invitrogen) supplemented with 10% (v/v) Fetal Bovine Serum (FBS, SH3008803, Hyclone) and 1% pen-strep (GIBCO/Invitrogen). […]
(A western blot detects proteins with antibodies after separation by electrophoresis.)

Experiment [2] concerns 797TRex cells. Description: luminescent cell viability assay (CellTiter-Glo), 797TRex. In kind it is cell-based, human. The note with it: induced ET domain expression for 120 h. The protocol: (§1) Cells were plated at a density of 3000 per well in a 96-well plate, and CellTiter-Glo (Promega, Madison, Wis.) was used to determine cell viability as a measure of ATP content according to the manufacturer's instructions.
(In general: ATP-based viability assays read luminescence as a measure of living cells.)

For another experiment, the system named is U2OS cells. Description: luminescent cell viability assay (CellTiter-Glo), U2OS. The note with it: induced ET domain expression for 120 h. In kind it is cell-based. On the procedure: as §1
The next experiment relates to 293T cells. Put plainly: luminescent cell viability assay (CellTiter-Glo), 293T. The experiment is classed as cell-based. Conditions: induced ET domain expression for 120 h. On the procedure:
as §1

Another experiment has as its target T1, BRD4-NUT foci (Homo sapiens, UniProt O60885+Q86Y26).
T1 construct: composed of the N-terminal of BRD4 (amino acids 1-720 out of 1372); endogenous in cells; host or cells: 797TRex cells (tet-inducible derivative of the BRD4-NUT-positive NMC line TC-797)
Put plainly: immunofluorescence co-localization in 797TRex cells. The experiment is classed as cell-based. Conditions: HA-tagged, induced 24 h. On the procedure:
Immunofluorescence on TC-797 cells was performed as described (55) and nuclei were counterstained with ProLong® Gold antifade reagent with 4′,6-diamidino-2-phenylindole (DAPI) (Life Technologies). Primary antibodies used were anti-NUT (1:1000, rabbit monoclonal clone C52, Cell Signaling Technology), and anti-HA (1:500, mouse monoclonal, Sigma-Aldrich). Secondary antibodies included goat anti-rabbit Alexa Fluor 594 and goat anti-mouse Alexa Fluor 488 (1:1000, Life Technologies, Grand Island, N.Y.). Photos were taken on a Nikon Eclipse E600 fluorescent microscope (Melville, N.Y.) using a Spot RTSlider camera (Diagnostic Instruments, Inc., Sterling Heights, Mich.), and Spot Advanced software (Diagnostic Instruments, Inc.).

The next experiment addresses T2, BRD4 (Homo sapiens, UniProt O60885).
T2 construct: endogenous in cells; host or cells: C33A-6TR (tet-repressor-positive C33A cervical carcinoma cells)
Put plainly: anti-HA co-immunoprecipitation in C33A-6TR cells. In kind it is binding. The note with it: HA-tagged construct, C33A cervical carcinoma cells. On the procedure:
For co-immunoprecipitation experiments of HA-tagged proteins, C33A-6TR cells stably expressing HA-tagged constructs under a Tet-inducible promoter were used. Protein extracts were prepared 24 h after transfection or induction with Doxycycline (1 μg/ml). Cells were lysed in lysis buffer (50 mM Tris-HCl [pH 7.5], 150 mM NaCl, 0.5% Nonidet P-40) with freshly added protease inhibitors (Roche Complete, EDTA free protease inhibitor cocktail, Roche, Indianapolis, Ind.). Extracts were adjusted for protein concentration and 10% of extracts were used as Input Immunoprecipitations were performed using 15 μl of HA-resin (Sigma A2095). Extracts were incubated overnight at 4° C., and precipitated proteins were detected by Western blot analysis.

B1: ET domain: BRD4 ET domain containing fragment (BRD4 444-722) with N-terminal SV40 NLS, FLAG-tagged, tet-inducibly expressed (protein)
chain: KLQDVFEMRFAKMPDEPEEPVVAVSSPAVPPPTKVVAPPSSSDSSSDSSSDSDSSTDDSEEERAQRLAELQEQLKAVHEQLAALSQPQQNKPKKKEKDKKEKKKEKHKRKEEVEENKKSKAKEPPPKKTKKNNSSNSNVSRKEPAPMKSKPPPTYESEEEDKCKPMSYEEKRQLSLDINLPGEKLGRVVHIIQSREPSLKNSNPDEIEIDFETLKPSTLRELERYVTSCLRKKRKPQAEICVDVIAGSSKMKGFSSSESESSSESSSSDSEDSETEMAP
modifications: left off: small tags and cut ends
notes: BRD4 ET domain containing fragment (BRD4 444-722) with N-terminal SV40 NLS, FLAG-tagged, tet-inducibly expressed
In the case of B1, the “differentiation (morphology, involucrin)” value with 797TRex cells [1] is “inducing differentiation morphologically and immunophenotypically”. Also, the “proliferation rate (cell viability, CellTiter-Glo)” value in the experiment with 797TRex cells [2] was “negatively affected the proliferation rate”. Also, the “growth (cell viability, CellTiter-Glo)” value with U2OS cells and in the experiment with 293T cells was “unaffected” each time.

B2: NSD3Tr: portion of NSD3 present in NSD3-NUT, amino acids 1-569 of NSD3, HA- or BioTAP-tagged, inducibly expressed (protein)
chain: MDFSFSFMQGIMGNTIQQPPQLIDSANIRQEDAFDNNSDIAEDGGQTPYEATLQQGFQYPATTEDLPPLTNGYPSSISVYETQTKYQSYNQYPNGSANGFGAVRNFSPTDYYHSEIPNTRPHEILEKPSPPQPPPPPSVPQTVIPKKTGSPEIKLKITKTIQNGRELFESSLCGDLLNEVQASEHTKSKHESRKEKRKKSNKHDSSRSEERKSHKIPKLEPEEQNRPNERVDTVSEKPREEPVLKEEAPVQPILSSVPTTEVSTGVKFQVGDLVWSKVGTYPWWPCMVSSDPQLEVHTKINTRGAREYHVQFFSNQPERAWVHEKRVREYKGHKQYEELLAEATKQASNHSEKQKIRKPRPQRERAQWDIGIAHAEKALKMTREERIEQYTFIYIDKQPEEALSQAKKSVASKTEVKKTRRPRSVLNTQPEQTNAGEVASSLSSTEIRRHSQRRHTSAEEEEPPPVKIAWKTAAARKSLPASITMHKGSLDLQKCNMSPVVKIEQVFALQNATGDGKFIDQFVYSTKGIGNKTEISVRGQDRLIISTPNQRNEKPTQSVSSPEATSGST
modifications: left off: large carriers; small tags and cut ends
notes: portion of NSD3 present in NSD3-NUT, amino acids 1-569 of NSD3, HA- or BioTAP-tagged, inducibly expressed
With B2, the “differentiation (morphology, involucrin)” value in the experiment with 797TRex cells [1] is reported as “found to induce differentiation”. Besides, the “co-localization with BRD4-NUT foci” value with BRD4-NUT foci is listed as “co-localized with BRD4-NUT foci”. Also, the “co-immunoprecipitation of BRD4” value with BRD4 is reported as “co-immunoprecipitated BRD4”.
